B1: VQ8A9-6 (antibody, V domains shown)
VH: EVQLVESGGNLVQPGRSLRLSCAASGFIFDDYAMHWVRQAPGKGLEWVSGISWNSGSIGYADSVKGRFTISRDNAKNSLYLQMNSLRAEDTALYYCAKDGGSSWLPFVYYYGMDVWGQGTTVTVSS
VL: EIVMTQSPATLSVSPGERATLSCRASQSISSNFAWYQQKPGQAPRLLIYGASTRATGIPARFSGSGSGTDFTLTISSLQSEDFAVYYCQQYSSWPPYTFGQGTKLEIK
B2: VV6C10-3 (antibody, V domains shown)
VH: QVQLVQSGAEVKKPGASVKVSCKASGFNFFHYGITWVRQAPGQGLEWMGWISTYNGDTIYAQKVQGRVTMTTDTATSTAYMELRSLRSDDTAVYYCARSEQQVDYYFYGMDVWGQGTTVTVSS
VL: EIVLTQSPATLSLSPGERATLSCRASQSVSSYLAWYQQKPGQAPRLLIYDASNRATGIPARFSGSGSGTDFTLTISSLEPEDFAFYYCQQRNNRPPFTFGPGTKVDVR
notes: also called W6C10-3
B3: VV6F12-11 (antibody, V domains shown)
VH: QVQLVQSGAEVKEPGASVKISCKASGYTFTSYDIIWVRQATGQGLEWMGWMNPNSGDRGYTQNLQGRVTLTRDTSISTVYMELSSLRSEDTAVYYCARDYSNHYYGLDVWGQGTTVTVSS
VL: DIQLTQSPSFLSASVGDRVTITCWASQDISNYLAWYQQKPGKAPKLLIFVASTLQSGVPSRFSGSGSGTEFTLTISSLQPEDFATYYCQQFNSYPLTFGGGTKVEIR
B4: VV9A6-11 (antibody, V domains shown)
VH: QVQLVQSGAEVKKPGASVKVSCKASGYTFTSYGISWVRQAPGQGLEWMGWISAYNDDTNYAQKFQGRVTMTTDTSTSTAYMELRSLRSDDTAVYYCAREAQLVLYYYYGMDVWGQGTTVTVSS
VL: EIVLTQSPATLSLSPGERATLSCRASQSVSSFLAWNQQKPGQAPRLLIYDASNRATGIPARFSGSGSGTDFTLTISSLEPEDFAVYYCQQRSNWPYIFGQGTKLEIK
notes: also called W9A6
B5: VV3D8-4 (antibody, V domains shown)
VH: EVQLVESGGGLVQPGRSLRLSCAASGFTFDDYALHWVRQAPGKGLEWVSGISWNSGRIGYADSVKGRFTISRDNAKNSLFLQMNSLRAEDTALYYCAKGRDAFDIWGQGTLVTVSS
VL: DIQMTQSPSSVSASVGDRVTITCRASQGISSWLAWYQQKPGKAPKLLIYAASSLQSGVPSRFSGSGSGTDFTLTISSLQPEDFATYYCQQANSFPYTFGQGTKLEIK
notes: also called W3D8
B6: VV6A9-5 (antibody, V domains shown)
VH: B5 VH with I51V, S55G, A88V
VL: B5 VL with Q90H, N92Y
notes: also called W6A9-5
B7: VQ8F11-21 (antibody, V domains shown)
VH: B5 VH with G26R, L34M, K76E, S85G, A102S, L111M
VL: B5 VL with A50G, Q55E, T85S
notes: also called mAb1; sarilumab
B8: VV1G4-7 (antibody, V domains shown)
VH: B3 VH with I20V, D57N, R58T, D73N, S77T, R87S, N102S
VL: B3 VL with A13T, V15I, R107K
notes: also called W1 G4; W1 G4-7

Positions count from the first letter of the chain named.

The target of the first assay is T1, hIL-6R recombinant protein (human, UniProt P08887 20-358).
T1 construct: also called hlL-6R recombinant protein; human IL-6R
T1 sequence: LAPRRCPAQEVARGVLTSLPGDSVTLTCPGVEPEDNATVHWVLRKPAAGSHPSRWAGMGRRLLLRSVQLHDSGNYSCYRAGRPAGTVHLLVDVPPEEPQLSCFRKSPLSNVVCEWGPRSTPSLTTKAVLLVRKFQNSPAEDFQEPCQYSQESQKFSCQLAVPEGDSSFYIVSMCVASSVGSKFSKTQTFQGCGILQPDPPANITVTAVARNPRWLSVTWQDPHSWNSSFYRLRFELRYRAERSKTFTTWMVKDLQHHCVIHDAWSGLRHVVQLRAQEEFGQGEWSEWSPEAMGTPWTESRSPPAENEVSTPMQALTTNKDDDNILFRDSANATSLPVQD
Nature of the assay: competition ELISA on plate-coated hIL-6R, competitor control antibody; similar SPR experiment.
As for B1, the binding result is “binds”.

Regarding B2, the binding result was “binds”.

For B3, the binding result was “binds”.

For B4, the binding result is “binds”.

For the molecule B5, the binding result is “binds”.

On to B6, for which the binding result is reported as “binds”.

As to B7, the binding result is recorded as “binds”.

For a further assay, the target named is T2, Recombinant monkey monomeric IL-6R protein (Macaca fascicularis, extracellular domain) (Macaca fascicularis, UniProt P08887 21-330 (human entry)).
T2 construct: also called monkey IL-6R; monkey receptor
T2 chain: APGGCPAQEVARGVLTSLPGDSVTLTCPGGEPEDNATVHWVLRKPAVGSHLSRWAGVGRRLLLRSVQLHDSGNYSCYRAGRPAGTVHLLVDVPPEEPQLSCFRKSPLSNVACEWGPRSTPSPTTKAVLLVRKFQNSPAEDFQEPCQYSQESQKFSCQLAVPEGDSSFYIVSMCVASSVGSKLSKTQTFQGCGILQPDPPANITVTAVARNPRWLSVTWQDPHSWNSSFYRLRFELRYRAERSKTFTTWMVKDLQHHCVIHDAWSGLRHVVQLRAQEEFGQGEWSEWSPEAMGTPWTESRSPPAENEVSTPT
The assay can be described thus: BIAcore, antibody captured on anti-mouse Fc, monomeric receptor injected.
For B1, the binding result is on record as “binds”.

As to B8, the binding result was “no binding (tested: 1.25 - 40 nM)”.

With B6, the binding result was “binds”.

For B7, the binding result was “binds”.

A further assay addresses T3, Recombinant human monomeric IL-6R protein (human, UniProt P08887 20-358).
T3 construct: also called monomeric hIL-6R; human receptor
T3 sequence: T1 sequence
The assay is described as above.
B8: the Kd came out at 241 pM.

(Values after patent WO2015116852A1 (dated 2015).)
